Laboratory results published in paper PMC4479991.

Legend:
[1] = biological target: zif268 (EGR1 DNA-binding domain), cleaved (UniProt P08046); experiment: solid-state nanopore; settings: EMSA: binding on ice, at least 1 h, native PAGE 8% (oligos) or 3.5% (1 kb), salt up to 1 M KCl; nanopore: 1 M KCl, 30 min incubation at 200:1 protein:DNA; pH …
[2] = biological target: zif268_GST (uncleaved fusion) (UniProt P08046); experiment: EMSA; settings: EMSA: binding on ice, at least 1 h, native PAGE 8% (oligos) or 3.5% (1 kb), salt up to 1 M KCl; nanopore: 1 M KCl, 30 min incubation at 200:1 protein:DNA; pH …

Substance: (-)DNA 960 bp
- binding signal (% ABA (specifically bound) events) [1]: 4.3

Substance: CGTCAGGGCAAGCCTTATTCACTGAATGAGCAGCTTTGTTACGTTGATTTGGGTAATGAATATCCGGTTCTTGTCAAGATTACTCTTGATGAAGGTCAGCCAGCCTATGCGCCTGGTCTGTACACCGTTCATCTGTCCTCTTTCAAAGTTGGTCAGTTCGGTTCCCTTATGATTGACCGTCTGCGCCTCGTTCCGGCTAAGTAACATGGAGCAGGTCGCGGATTTCGACACAATTTATCAGGCGATGATACAAATCTCCGTTGTACTTTGTTTCGCGCTTGGTATAATCGCTGGGGGTCAAAGATGAGTGTTTTAGTGTATTCTTTCGCCTCTTTCGTTTTAGGTTGGTGCCTTCGTAGTGGCATTACGTATTTTACCCGTTTAATGGAAACTTCCTCATGAAAAAGTCTTTAGTCCTCAAAGCCTCTGTAGCCGTTGCTACCCTCGTTCCGATGCTGTCTTTCGCTGCTGAGGGTGACGATCCCGCAAAAGCGGCCTTTAACTCCCTGCAAGCCTCAGCGACCGAATATATCGGTTATGCGTGGGCGATGGTTGTTGTCATTGTCGGCGCAACTATCGGTATCAAGCTGTTTAAGAAATTCACCTCGAAAGCAAGCTGATAAACCGATACAATTAAAGGCTCCTTTTGGAGCCTTTTTTTTTGGAGATTTTCAACGTGAAAAAATTATTATTCGCAATTCCTTTAGTTGTTCCTTTCTATTCTCACTCCGCTGAAACTGTTGAAAGTTGTTTAGCAAAACCCCATACAGAAAATTCATTTACTAACGTCTGGAAAGACGACAAAACTTTAGATCGTTACGCTAACTATGAGGGTTGTCTGTGGAATGCTACAGGCGTTGTAGTTTGTACTGGTGACGAAACTCAGTGTTACGGTACATGGGTTCCTATTGGGCTTGCTATCCCTGAAAATGAGGGTGGTGGCTCTGAGGGTGGCGGTTCTGAGGGTGGCGGTTCTGAGGGTGGCGGTACTAAACCTCCTGAGTACGGT (double strand) [(+)DNA 1009 bp]
- binding signal (% bound at 1:250 DNA:protein) [2]: 50
- binding signal (% ABA (specifically bound) events) [1]: 11.5
